Assay results taken from US20230265151A1, “GIP/GLP1 CO-AGONIST COMPOUNDS” (priority 2020, published 2023).

Key:
Experiment in all cases: cell-based or functional assay
human glucagon receptor [1] = biological target: human glucagon receptor (human, UniProt P47871 26-477)
human GIP receptor [2] = biological target: T1, human GIP receptor (human, UniProt P48546 22-466)
T1 sequence (looked up): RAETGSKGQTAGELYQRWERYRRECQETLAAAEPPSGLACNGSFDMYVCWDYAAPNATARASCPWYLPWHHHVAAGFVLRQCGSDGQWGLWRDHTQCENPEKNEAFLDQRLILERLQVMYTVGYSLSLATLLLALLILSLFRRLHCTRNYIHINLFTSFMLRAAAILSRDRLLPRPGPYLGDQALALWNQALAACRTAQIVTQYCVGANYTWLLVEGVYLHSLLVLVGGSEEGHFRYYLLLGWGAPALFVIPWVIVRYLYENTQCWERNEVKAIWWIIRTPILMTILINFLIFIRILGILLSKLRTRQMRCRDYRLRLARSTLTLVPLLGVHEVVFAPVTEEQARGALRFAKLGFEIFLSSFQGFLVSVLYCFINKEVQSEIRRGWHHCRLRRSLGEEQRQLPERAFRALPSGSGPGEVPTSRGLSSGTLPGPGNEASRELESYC

human GLP-1 receptor [3] = biological target: human GLP-1 receptor (human, UniProt P43220 24-463)
[4] = biological target: T2, human glucose-dependent insulinotropic polypeptide (GIP) receptor (human) (UniProt P48546)
T2 sequence (looked up): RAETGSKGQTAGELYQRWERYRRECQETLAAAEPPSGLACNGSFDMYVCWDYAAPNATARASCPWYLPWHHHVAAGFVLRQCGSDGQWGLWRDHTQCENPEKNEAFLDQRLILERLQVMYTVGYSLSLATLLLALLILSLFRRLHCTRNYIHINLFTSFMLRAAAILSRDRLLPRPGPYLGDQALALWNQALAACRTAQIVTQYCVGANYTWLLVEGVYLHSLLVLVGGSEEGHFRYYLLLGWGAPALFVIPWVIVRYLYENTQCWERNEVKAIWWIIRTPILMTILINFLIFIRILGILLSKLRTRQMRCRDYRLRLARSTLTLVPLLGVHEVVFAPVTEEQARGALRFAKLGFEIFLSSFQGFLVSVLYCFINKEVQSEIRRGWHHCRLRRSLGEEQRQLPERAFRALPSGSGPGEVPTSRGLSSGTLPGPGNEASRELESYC

[5] = biological target: human glucagon-like peptide-1 (GLP-1) receptor (human) (UniProt P43220)
[6] = biological target: human glucagon receptor (human) (UniProt P47871)
human GIP receptor [7] = biological target: T3, human GIP receptor (human, UniProt P48546 22-466); remark: listed apart in the source
T3 sequence (looked up): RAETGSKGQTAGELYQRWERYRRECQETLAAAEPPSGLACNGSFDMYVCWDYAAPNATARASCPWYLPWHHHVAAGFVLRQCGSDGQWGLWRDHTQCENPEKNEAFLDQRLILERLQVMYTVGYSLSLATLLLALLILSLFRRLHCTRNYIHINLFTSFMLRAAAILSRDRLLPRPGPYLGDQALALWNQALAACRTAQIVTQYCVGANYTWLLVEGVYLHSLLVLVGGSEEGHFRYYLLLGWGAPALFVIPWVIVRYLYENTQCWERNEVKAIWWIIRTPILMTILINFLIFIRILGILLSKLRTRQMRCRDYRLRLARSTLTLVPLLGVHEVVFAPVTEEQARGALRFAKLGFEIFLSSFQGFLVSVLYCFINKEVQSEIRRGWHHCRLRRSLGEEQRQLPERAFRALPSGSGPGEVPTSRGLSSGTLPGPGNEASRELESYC

human glucagon receptor [8] = biological target: human glucagon receptor (human, UniProt P47871 26-477); remark: listed apart in the source
human GLP-1 receptor [9] = biological target: human GLP-1 receptor (human, UniProt P43220 24-463); remark: listed apart in the source

B1: Example 236 (peptide)
peptide: YXEGTXTSDYXIXLDXKAQXKFIXXLIEGGPSSGAPPPS
modifications: Y-Aib-EGT-αMeF(2F)-TSDY-Aib-I-αMeL-LD-Orn-K((2-[2-(2-Amino-ethoxy)-ethoxy]-acetyl)2-(γ-Glu)-(10-(4-carboxyphenoxy)decanoyl))AQ-Aib-K((2-[2-(2-Amino-ethoxy)-ethoxy]-acetyl)2-(γ-Glu)-(10-(4-carboxyphenoxy)decanoyl))FI-(D-Glu)-αMeY-LIEGGPSSGAPPPS-NH2
cAMP EC50 (1.0% HSA) (human glucagon receptor [1]): > 9950 nM
cAMP EC50 (1.0% HSA) (human GIP receptor [2]): 0.641 nM
cAMP Emax (1.0% HSA) (human GIP receptor [2]): 80.5%
cAMP EC50 (1.0% HSA) (human GLP-1 receptor [3]): 32.6 nM
cAMP Emax (1.0% HSA) (human GLP-1 receptor [3]): 125%
cAMP EC50 [4]: 0.0154 nM
cAMP Emax [4]: 104%
cAMP EC50 [5]: 0.336 nM
cAMP Emax [5]: 96.5%
cAMP EC50 [6]: > 9950 nM

B2: Example 310 (peptide)
peptide: YXEGTXTSDXSIXLDXIAQXEFIKXLIKGGPSSGAPPPS
modifications: Aib2, αMeF(2F)6, hTyr10, αMeL13, Orn16, Aib20, αMeY25; K24 and K28: AEEA2-(γ-Glu)-(10-(4-carboxyphenoxy)decanoyl); C-terminal NH2
cAMP EC50 (human GIP receptor [7]): 0.025 nM
cAMP EC50 (human glucagon receptor [8]): > 9950 nM
cAMP EC50 (human GLP-1 receptor [9]): 0.347 nM

B3: Example 320 (peptide)
peptide: YXEGTXTSDXSIXLDXKAQXKFIXXLIEGGPSSGAPPPS
modifications: Aib2, αMeF(2F)6, hTyr10, αMeL13, Orn16, Aib20, D-Glu24, αMeY25; K17 and K21: AEEA2-(γ-Glu)-(10-(4-carboxyphenoxy)decanoyl); C-terminal NH2
cAMP EC50 (human GIP receptor [7]): 0.0144 nM
cAMP EC50 (human glucagon receptor [8]): > 9950 nM
cAMP EC50 (human GLP-1 receptor [9]): 0.246 nM

B4: Example 232 (peptide)
peptide: YXEGTXTSDYXIXLDXKAQXEFIXXLIEGGPSSGAPPPSK
modifications: Y-Aib-EGT-αMeF(2F)-TSDY-Aib-I-αMeL-LD-Orn-K((2-[2-(2-Amino-ethoxy)-ethoxy]-acetyl)2-(γ-Glu)-CO-(CH2)12-CO2H)AQ-Aib-EFI-(D-Glu)-αMeY-LIEGGPSSGAPPPSK((2-[2-(2-Amino-ethoxy)-ethoxyl-acetyl)2-(γ-Glu)-CO-(CH2)12-CO2H)-NH2
cAMP EC50 (1.0% HSA) (human glucagon receptor [1]): > 9950 nM
cAMP EC50 (1.0% HSA) (human GIP receptor [2]): 1.86 nM
cAMP EC50 (1.0% HSA) (human GLP-1 receptor [3]): 33.6 nM
cAMP Emax (1.0% HSA) (human GLP-1 receptor [3]): 95.4%
cAMP EC50 [4]: 0.0192 nM
cAMP Emax [4]: 101%
cAMP EC50 [5]: 0.565 nM
cAMP Emax [5]: 103%
cAMP EC50 [6]: > 9950 nM

B5: Example 291 (peptide)
peptide: YXEGTXTSDXSIXLDXKAQXEFIXXLIEGGPSSGAPPPSK
modifications: Aib2, αMeF(2F)6, OMeY10, αMeL13, Orn16, Aib20, D-Glu24, αMeY25; K17 and K40: AEEA2-(γ-Glu)-CO-(CH2)10-CH3; C-terminal NH2
cAMP EC50 (human GIP receptor [7]): 0.012 nM
cAMP EC50 (human glucagon receptor [8]): > 9950 nM
cAMP EC50 (human GLP-1 receptor [9]): 0.207 nM

B6: Example 245 (peptide)
peptide: YXEGTXTSDXXIXLDXKAQXEFIXXLIEGGPSSGAPPPSK
modifications: Y-Aib-EGT-αMeF(2F)-TSD-4Pal-Aib-I-αMeL-LD-Orn-K((2-[2-(2-Amino-ethoxy)-ethoxy]-acetyl)2-(γ-Glu)-(10-(4-carboxyphenoxy)decanoyl))AQ-Aib-EFI-(D-Glu)-αMeY-LIEGGPSSGAPPPSK((2-[2-(2-Amino-ethoxy)-ethoxy]-acetyl)2-(γ-Glu)-(10-(4-carboxyphenoxy)decanoyl))-NH2
cAMP EC50 (1.0% HSA) (human glucagon receptor [1]): > 9950 nM
cAMP EC50 (1.0% HSA) (human GIP receptor [2]): 0.552 nM
cAMP EC50 (1.0% HSA) (human GLP-1 receptor [3]): 27 nM
cAMP Emax (1.0% HSA) (human GLP-1 receptor [3]): 93.8%
cAMP EC50 [4]: 0.0195 nM
cAMP Emax [4]: 96.7%
cAMP EC50 [5]: 1.88 nM
cAMP Emax [5]: 88.9%
cAMP EC50 [6]: > 9950 nM

B7: Example 242 (peptide)
peptide: YXEGTXTSDXXIXLDXIAQXKFIXXLIEGGPSSGAPPPSK
modifications: Y-Aib-EGT-αMeF(2F)-TSD-4Pal-Aib-I-αMeL-LD-Orn-IAQ-Aib-K(2-[2-(2-Amino-ethoxy)-ethoxy]-acetyl)2-(γ-Glu)-(11-(4-carboxyphenoxy)undecanoyl)FI-(D-Glu)-αMeY-LIEGGPSSGAPPPSK((2-[2-(2-Amino-ethoxy)-ethoxy]-acetyl)2-(γ-Glu)-(11-(4-carboxyphenoxy)undecanoyl)-NH2)
cAMP EC50 (1.0% HSA) (human glucagon receptor [1]): > 9950 nM
cAMP EC50 (1.0% HSA) (human GIP receptor [2]): 11 nM
cAMP Emax (1.0% HSA) (human GIP receptor [2]): 83.9%
cAMP EC50 (1.0% HSA) (human GLP-1 receptor [3]): 214 nM
cAMP Emax (1.0% HSA) (human GLP-1 receptor [3]): 102%
cAMP EC50 [4]: 0.0197 nM
cAMP Emax [4]: 100%
cAMP EC50 [5]: 0.584 nM
cAMP Emax [5]: 96.3%
cAMP EC50 [6]: > 9950 nM

B8: Example 248 (peptide)
peptide: YXEGTXTSDXXIXLDXIAQXKFIXXLIEGGPSSGAPPPSK
modifications: Y-Aib-EGT-αMeF(2F)-TSD-4Pal-Aib-I-αMeL-LD-Orn-IAQ-Aib-K((2-[2-(2-Amino-ethoxy)-ethoxy]-acetyl)2-(γ-Glu)-(10-(4-carboxyphenoxy)decanoyl))FI-(D-Glu)-αMeY-LIEGGPSSGAPPPSK((2-[2-(2-Amino-ethoxy)-ethoxy]-acetyl)2-(γ-Glu)-(10-(4-carboxyphenoxy)decanoyl))-NH2
cAMP EC50 (1.0% HSA) (human glucagon receptor [1]): > 9950 nM
cAMP EC50 (1.0% HSA) (human GIP receptor [2]): 4.1 nM
cAMP Emax (1.0% HSA) (human GIP receptor [2]): 91.8%
cAMP EC50 (1.0% HSA) (human GLP-1 receptor [3]): 56.7 nM
cAMP Emax (1.0% HSA) (human GLP-1 receptor [3]): 92.7%
cAMP EC50 [4]: 0.0176 nM
cAMP Emax [4]: 99.2%
cAMP EC50 [5]: 0.537 nM
cAMP Emax [5]: 89.1%
cAMP EC50 [6]: > 9950 nM

B9: Example 235 (peptide)
peptide: YXEGTXTSDYXIXLDXIAQXKFIXXLIEGGPSSGAPPPSK
modifications: Y-Aib-EGT-aMeF(2F)-TSDY-Aib-I-aMeL-LD-Orn-IAQ-Aib-K((2-[2-(2-Amino-ethoxy)-ethoxy]-acetyl)2-(γ-Glu)-CO-(CH2)12-CO2H)FI-(D-Glu)-αMeY-LIEGGPSSGAPPPSK((2-[2-(2-Amino-ethoxy)-ethoxy]-acetyl)2-(γ-Glu)-CO-(CH2)12-CO2H)-NH2
cAMP EC50 (1.0% HSA) (human glucagon receptor [1]): > 9950 nM
cAMP EC50 (1.0% HSA) (human GIP receptor [2]): 10.1 nM
cAMP Emax (1.0% HSA) (human GIP receptor [2]): 92.2%
cAMP EC50 (1.0% HSA) (human GLP-1 receptor [3]): 598 nM
cAMP Emax (1.0% HSA) (human GLP-1 receptor [3]): 152%
cAMP EC50 [4]: 0.0168 nM
cAMP Emax [4]: 99.3%
cAMP EC50 [5]: 0.295 nM
cAMP Emax [5]: 104%
cAMP EC50 [6]: > 9950 nM

B10: Example 241 (peptide)
peptide: YXEGTXTSDYXIXLDXIAQXKFIXXLIEGGPSSGAPPPSK
modifications: Y-Aib-EGT-αMeF(2F)-TSDY-Aib-I-αMeL-LD-Orn-IAQ-Aib-K((2-[2-(2-Amino-ethoxy)-ethoxy]-acetyl)2-(γ-Glu)-(10-(4-carboxyphenoxy)decanoyl))FI-(D-Glu)-αMeY-LIEGGPSSGAPPPSK((2-[2-(2-Amino-ethoxy)-ethoxy]-acetyl)2-(γ-Glu)-(10-(4-carboxyphenoxy)decanoyl))-NH2
cAMP EC50 (1.0% HSA) (human glucagon receptor [1]): > 9950 nM
cAMP EC50 (1.0% HSA) (human GIP receptor [2]): 8.02 nM
cAMP Emax (1.0% HSA) (human GIP receptor [2]): 84.9%
cAMP EC50 (1.0% HSA) (human GLP-1 receptor [3]): 103 nM
cAMP Emax (1.0% HSA) (human GLP-1 receptor [3]): 105%
cAMP EC50 [4]: 0.0213 nM
cAMP Emax [4]: 105%
cAMP EC50 [5]: 0.362 nM
cAMP Emax [5]: 91%
cAMP EC50 [6]: > 9950 nM

B11: Example 238 (peptide)
peptide: YXEGTXTSDYXIXLDXKAQXEFIXXLIEGGPSSGAPPPSK
modifications: Y-Aib-EGT-αMeF(2F)-TSDY-Aib-I-αMeL-LD-Orn-K((2-[2-(2-Amino-ethoxy)-ethoxy]-acetyl)2-(γ-Glu)-(10-(4-carboxyphenoxy)decanoyl))AQ-Aib-EFI-(D-Glu)-αMeY-LIEGGPSSGAPPPSK((2-[2-(2-Amino-ethoxy)-ethoxy]-acetyl)2-(γ-Glu)-(10-(4-carboxyphenoxy)decanoyl))-NH2
cAMP EC50 (1.0% HSA) (human glucagon receptor [1]): > 9950 nM
cAMP EC50 (1.0% HSA) (human GIP receptor [2]): 1.31 nM
cAMP EC50 (1.0% HSA) (human GLP-1 receptor [3]): 27.2 nM
cAMP Emax (1.0% HSA) (human GLP-1 receptor [3]): 103%
cAMP EC50 [4]: 0.0214 nM
cAMP Emax [4]: 104%
cAMP EC50 [5]: 1.03 nM
cAMP Emax [5]: 107%
cAMP EC50 [6]: > 9950 nM
